Reference: article PMC4255305

Biological target: (R)-selective amine : pyruvate transaminase from Nectria haematococca, His-tagged (construct pQR1023) (Nectria haematococca)
Experiment: SEC; Superdex 200 HiLoad 16/60 gel filtration, 50 mM Tris/HCl, 0.1 M NaCl pH 7.5, 1.0 mL/min; dimer from the elution volume

Substance “(R)-selective amine : pyruvate transaminase from Nectria haematococca, His-tagged (construct pQR1023) (enzyme)” has a stoichiometry N of 2.
